Source: patent publication US20220119534A1 (DRAGONFLY THERAPEUTICS, published 2022)
Substitutions are numbered along the chain they refer to. Names may count otherwise. “And” between values parts separate entries of the source, which are not always exact repeats. Identical values can stand only once. Like-named read-outs stand apart in the source and are kept apart here.

Legend:
Human CLEC12A-His [1] = biological target: T1, Human CLEC12A-His (human, UniProt Q5QGZ9 65-265); assay: SPR Biacore 8K 37 C; TriNKET captured on anti-hFc chip, hCLEC12A-His as analyte; 1:1 fit; control, n=4
T1 construct: Recombinant soluble protein made in house (Dragonfly Tx); The hCLEC12A spot of the HuProt array is written under this molecule as well; also called hCLEC12A-His; hCLEC12A; not shown: His tag
T1 sequence: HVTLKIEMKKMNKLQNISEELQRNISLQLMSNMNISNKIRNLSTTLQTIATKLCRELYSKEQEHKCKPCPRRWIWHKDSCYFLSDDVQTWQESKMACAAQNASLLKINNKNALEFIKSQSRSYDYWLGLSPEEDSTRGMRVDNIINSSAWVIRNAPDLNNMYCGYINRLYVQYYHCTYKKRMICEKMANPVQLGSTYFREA

Human CLEC12A-His [2] = biological target: T1, Human CLEC12A-His; assay: cell-based or functional assay
Human CLEC12A-His [3] = biological target: T1, Human CLEC12A-His; assay: SPR Biacore 8K 37 C; TriNKET captured on anti-hFc chip, hCLEC12A-His as analyte; 1:1 fit; after 4 wks 40 C in CST pH 7.0, n=2
Experimental: Briefly, human Fc specific antibodies were covalently immobilized at a density ˜8000-10000 resonance units (RU) on carboxy methyl dextran matrix of a CM5 biosensor chip via amine-coupling chemistry to create an anti-hFc IgG chip. […] Association was monitored for 300 seconds and dissociation was monitored for 600 seconds. Surfaces were regenerated between cycles with three pulses of 10 mM glycine-HCl, pH 1.7 injected for 20 seconds at 100 μL/min. HBS-EP+ (1×) with 0.1 mg/mL BSA buffer was used throughout the experiment. Data were analyzed using Biacore 8K Insight evaluation software (GE Healthcare).

Human CLEC12A-His [4] = biological target: T1, Human CLEC12A-His; assay: SPR Biacore 8K 37 C; TriNKET captured on anti-hFc chip, hCLEC12A-His as analyte; 1:1 fit; after 4 wks 40 C in HST pH 6.0, n=2
Experimental: Briefly, human Fc specific antibodies were covalently immobilized at a density ˜8000-10000 resonance units (RU) on carboxy methyl dextran matrix of a CM5 biosensor chip via amine-coupling chemistry to create an anti-hFc IgG chip. […] Association was monitored for 300 seconds and dissociation was monitored for 600 seconds. Surfaces were regenerated between cycles with three pulses of 10 mM glycine-HCl, pH 1.7 injected for 20 seconds at 100 μL/min. HBS-EP+ (1×) with 0.1 mg/mL BSA buffer was used throughout the experiment. Data were analyzed using Biacore 8K Insight evaluation software (GE Healthcare). The kinetic rate constants and overall affinity were obtained using 1:1 kinetic fit binding model (FIGS. 71A-71B).

mFc-hNKG2D [5] = biological target: T2, mFc-hNKG2D (human, UniProt P26718 73-216); assay: SPR Biacore 8K 37 C; mFc-hNKG2D captured on anti-mFc chip, TriNKET as analyte; kinetics fit
T2 construct: extracellular domain; Made in house (Dragonfly Tx); the order of tag and ECD follows the name mFc-hNKG2D; also called mFc-tagged human NKG2D; not shown: mouse Fc tag
T2 sequence (looked up): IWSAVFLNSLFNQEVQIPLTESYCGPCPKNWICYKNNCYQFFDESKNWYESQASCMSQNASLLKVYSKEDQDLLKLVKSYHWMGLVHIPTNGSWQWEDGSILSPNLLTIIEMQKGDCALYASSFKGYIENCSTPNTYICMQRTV

[6] = biological target: T3, Human CLEC12A-His (recombinant, K244 WT) (human, UniProt Q5QGZ9 65-265); assay: SPR, two-state fit (ka1); control sample
T3 construct: Made in house (Dragonfly Tx); also called hCLEC12A; hCLEC12A-His; not shown: His tag
T3 sequence: T1 sequence

[7] = biological target: T3, Human CLEC12A-His (recombinant, K244 WT); assay: SPR, two-state fit (kd1); control sample
Experimental: (§1) Briefly, human Fc specific antibodies were covalently immobilized at a density ˜8000-10000 resonance units (RU) on carboxy methyl dextran matrix of a CM5 biosensor chip via amine-coupling chemistry to create an anti-hFc IgG chip. […] Association was monitored for 300 seconds and dissociation was monitored for 600 seconds. Surfaces were regenerated between cycles with three pulses of 10 mM glycine-HCl, pH 1.7 injected for 20 seconds at 100 μl/min. HBS-EP+ (1×) with 0.1 mg/ml BSA was used as running buffer throughout the experiment. Experiments were performed at physiological temperature of 37° C. To obtain kinetic rate constants and overall binding affinity, double-referenced data were fit to a two-state kinetic model using Biacore 8K Insight Evaluation software (Cytiva).

[8] = biological target: T3, Human CLEC12A-His (recombinant, K244 WT); assay: SPR, two-state fit (ka1); control sample; remark: listed apart in the source
Experimental: as §1

[9] = biological target: T3, Human CLEC12A-His (recombinant, K244 WT); assay: SPR, two-state fit (kd1); after low pH hold
Experimental: as §1

Human CD16b (FcγRIIIb) = biological target: T4, Human CD16b (FcγRIIIb) (human, UniProt O75015 17-200, limits assumed, biotinylated); assay: SPR, summary of FcγR affinities (n = 3)
T4 construct: Bought recombinant receptor; also called hFcγRIIIb; CD16b (FcγR3b)
T4 sequence (O75015 17-200 limits assumed): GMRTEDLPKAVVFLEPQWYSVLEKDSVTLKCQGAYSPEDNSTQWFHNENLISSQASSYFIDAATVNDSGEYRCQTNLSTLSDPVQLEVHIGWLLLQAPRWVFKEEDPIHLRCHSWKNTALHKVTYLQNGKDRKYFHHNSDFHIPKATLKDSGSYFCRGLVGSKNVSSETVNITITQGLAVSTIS
Experimental: (§2) Human and cynomolgus CD64, high and low affinity alleles of CD16a (V158 and F158, respectively), two alleles of CD32a (H131 and R131), CD16b, CD32b and cynomolgus CD16 were captured via biotin on a primed (according to the manufacturers instruction) Biacore chip. […] Due to irreversibility of streptavidin-biotin interaction, the capture step for all receptors except FcγRI (CD64) was performed just once prior to the start of the binding experiment. hCD64 and cyno CD64 capture on the CAP chip surface was performed during each cycle in accordance with the manufacturer's instructions for the Biotin CAPture kit.
(§3) Detailed description of each individual receptor binding is presented below.

[10] = biological target: T5, Cynomolgus CD16 (FcγRIII) (cynomolgus monkey, UniProt Q8SPW2 17-208, biotinylated); assay: SPR, summary of FcγR affinities (n = 3)
T5 construct: Bought recombinant receptor; also called cFcγRIII; Cyno FcγRIII
T5 sequence (Q8SPW2 17-208 limits assumed): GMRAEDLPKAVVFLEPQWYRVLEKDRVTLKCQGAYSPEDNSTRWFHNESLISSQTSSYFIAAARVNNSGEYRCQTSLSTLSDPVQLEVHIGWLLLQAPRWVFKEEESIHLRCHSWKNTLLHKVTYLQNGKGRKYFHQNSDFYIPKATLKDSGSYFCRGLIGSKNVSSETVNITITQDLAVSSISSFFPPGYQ
Experimental: as §2, §3

Cynomolgus CD64 (FcγRI) = biological target: T6, Cynomolgus CD64 (FcγRI) (cynomolgus monkey, UniProt A0A2K5U901 33-309, Biotinylated and captured on the CAP chip (p-1094); the biotin site is not stated.); assay: SPR, summary of FcγR affinities (n = 3)
T6 construct: Bought recombinant receptor; also called cFcγRI; Cynomolgus FcγRI; not shown: The vendor's biotinylation and purification tag (ACRO FCA-C82E8)
T6 sequence (A0A2K5U901 entry or part of it limits assumed): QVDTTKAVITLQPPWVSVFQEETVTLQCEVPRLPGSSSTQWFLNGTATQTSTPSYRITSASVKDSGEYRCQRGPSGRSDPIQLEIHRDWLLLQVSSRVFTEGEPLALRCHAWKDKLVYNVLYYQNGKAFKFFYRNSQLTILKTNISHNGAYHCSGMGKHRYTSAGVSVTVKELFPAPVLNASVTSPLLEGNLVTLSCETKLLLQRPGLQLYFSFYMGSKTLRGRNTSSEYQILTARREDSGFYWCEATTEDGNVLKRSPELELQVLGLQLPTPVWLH

[11] = biological target: T3, Human CLEC12A-His (recombinant, K244 WT); assay: SPR, two-state fit; after 4 wks 40C in CST pH 7.0
Experimental: as §1

Human CD16a V158 = biological target: T7, Human CD16a V158 (human, UniProt P08637 17-208, biotinylated); assay: SPR; control sample (pH 8 stress study)
T7 construct: Bought recombinant receptor; also called hCD16a (V158); hFcγRIIIa V158
T7 sequence (P08637 17-208 F176V limits assumed): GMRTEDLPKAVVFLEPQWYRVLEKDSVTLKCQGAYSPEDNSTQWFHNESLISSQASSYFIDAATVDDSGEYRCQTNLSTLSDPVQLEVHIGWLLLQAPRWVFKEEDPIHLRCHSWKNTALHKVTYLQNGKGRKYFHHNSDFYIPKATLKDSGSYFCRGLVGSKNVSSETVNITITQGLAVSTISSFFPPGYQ

mFc-hNKG2D [12] = biological target: T8, mFc-hNKG2D (human, UniProt P26718 73-216); assay: SPR; control sample (pH 8 stress study)
T8 construct: extracellular domain; Recombinant mFc-tagged NKG2D dimer, made in house; also called human NKG2D; not shown: mouse Fc tag
T8 sequence (looked up): T2 sequence (looked up)

Human CLEC12A-His [13] = biological target: T9, Human CLEC12A-His (human, UniProt Q5QGZ9 65-265); assay: SPR; control sample (pH 8 stress study)
T9 construct: Recombinant soluble protein made in house; also called hCLEC12A-His; hCLEC12A; not shown: His tag
T9 sequence: T1 sequence

[14] = biological target: T10, recombinant human CLEC12A-His (human, UniProt Q5QGZ9 65-265); assay: SPR 37C, TriNKET captured on anti-hFc
T10 construct: also called hCLEC12A-His; hCLEC12A
T10 sequence: T1 sequence
Experimental: Briefly, human Fc specific antibodies were covalently immobilized at a density of about 8000-10000 resonance units (RU) on carboxy methyl dextran matrix of a CM5 biosensor chip to create an anti-hFc IgG chip. […] Association was monitored for 300 seconds, and dissociation was monitored for 900 seconds. Surfaces were regenerated between cycles with three pulses of 10 mM glycine-HCl (pH 1.7) injected for 20 seconds at 100 μL/min.

B1: F3'-1602 TriNKET (bispecific antibody, human IgG1, kappa)
chain: QLQLQESGPGLVKPSETLSLTCTVSGFSLTNYGLHWIRQPPGKCLEWIGVIWSGGKTDYNPSLKSRVTISKDTSKNQFSLKLSSVQAADTAVYYCAKYDYDDSLDYWGQGTLVTVSSGGGGSGGGGSGGGGSGGGGSDIQMTQSPSSLSASVGDRVTITCHASQNINFWLSWYQQKPGKAPKLLIYEASNLHTGVPSRFSGSGSGTRFTLTISSLQPEDIATYYCQQSHSYPLTFGCGTKLEIKGSDKTHTCPPCPAPELLGGPSVFLFPPKPKDTLMISRTPEVTCVVVDVSHEDPEVKFNWYVDGVEVHNAKTKPREEQYNSTYRVVSVLTVLHQDWLNGKEYKCKVSNKALPAPIEKTISKAKGQPREPRVYTLPPCRDELTKNQVSLTCLVKGFYPSDIAVEWESNGQPENNYKTTPPVLVSDGSFTLYSKLTVDKSRWQQGNVFSCSVMHEALHNHYTQKSLSLSPG
heavy: EVQLVESGGGLVKPGGSLRLSCAASGFTFSSYSMNWVRQAPGKGLEWVSSISSSSSYIYYADSVKGRFTISRDNAKNSLYLQMNSLRAEDTAVYYCARGAPIGAAAGWFDPWGQGTLVTVSSASTKGPSVFPLAPSSKSTSGGTAALGCLVKDYFPEPVTVSWNSGALTSGVHTFPAVLQSSGLYSLSSVVTVPSSSLGTQTYICNVNHKPSNTKVDKKVEPKSCDKTHTCPPCPAPELLGGPSVFLFPPKPKDTLMISRTPEVTCVVVDVSHEDPEVKFNWYVDGVEVHNAKTKPREEQYNSTYRVVSVLTVLHQDWLNGKEYKCKVSNKALPAPIEKTISKAKGQPREPQVCTLPPSRDELTENQVSLTCLVKGFYPSDIAVEWESNGQPENNYKTTPPVLDSDGSFFLYSWLTVDKSRWQQGNVFSCSVMHEALHNHYTQKSLSLSPG
light: DIQMTQSPSSVSASVGDRVTITCRASQGISSWLAWYQQKPGKAPKLLIYAASSLQSGVPSRFSGSGSGTDFTLTISSLQPEDFATYYCQQGVSFPRTFGGGTKVEIKRTVAAPSVFIFPPSDEQLKSGTASVVCLLNNFYPREAKVQWKVDNALQSGNSQESVTEQDSKDSTYSLSSTLTLSKADYEKHKVYACEVTHQGLSSPVTKSFNRGEC
notes: Trispecific F3' format: CLEC12A scFv-Fc paired with NKG2D Fab-Fc; Stressed and control samples of the stability studies are the same molecule; also called AB0237
Kd (Human CLEC12A-His [1]): 0.638 nM
koff (Human CLEC12A-His [1]): 0.000433 s⁻¹
kon (Human CLEC12A-His [1]): 678000 M⁻¹ s⁻¹
EC50 (nM), KHYG-1-CD16aV cytotoxicity assay, PL-21 cells (Human CLEC12A-His [2]): 0.12 nM
Kd (Human CLEC12A-His [3]): 0.86 nM
koff (Human CLEC12A-His [3]): 0.000674 s⁻¹
kon (Human CLEC12A-His [3]): 784000 M⁻¹ s⁻¹
Kd (Human CLEC12A-His [4]): 1.69 nM
koff (Human CLEC12A-His [4]): 0.00214 s⁻¹
kon (Human CLEC12A-His [4]): 1.24e+06 M⁻¹ s⁻¹
Kd (mFc-hNKG2D [5]): 703 nM and 705 nM and 745 nM and 732 nM

B2: AB0089 TriNKET (bispecific antibody, human IgG1, kappa)
chain: B1 chain with S53V, K56A, K71V, Y98G, D101G, S103T, R207D, I220F
heavy: B1 heavy
light: B1 light
notes: F3' format heterodimer of three chains; human IgG1 Fc with EW-RVT and Y349C/S354C mutations; also called AB0089 Lot AB0089-002; CLEC12A TriNKET AB0089
kon [6]: 1.01e+07 M⁻¹ s⁻¹
koff [7]: 0.042 s⁻¹
kon [8]: 1.04e+07 M⁻¹ s⁻¹
koff [9]: 0.0465 s⁻¹
Kd (Human CD16b (FcγRIIIb)): 8850 nM
Kd [10]: 349 nM
Kd (Cynomolgus CD64 (FcγRI)): 1.5 nM
Kd [11]: 1 nM

B3: AB0192 TriNKET (other)
chain: EVQLVESGGGVVQPGGSLRLSCAASGFTFNAFGMHWVRQAPGKCLEWVAFISSGSTSIYYANTVKGRFTISRDNSKNTLYLQMNSLRAEDTAVYYCARDGYPTGGAMDYWGQGTSVTVSSGGGGSGGGGSGGGGSGGGGSDIQMTQSPSSLSASVGDRVTITCKASQDIYNYLSWFQQKPGKAPKPLIYRANILVSGVPSRFSGSGSGQDYTFTISSLQPEDIATYYCLQFDAFPFTFGCGTKLEIKGSDKTHTCPPCPAPELLGGPSVFLFPPKPKDTLMISRTPEVTCVVVDVSHEDPEVKFNWYVDGVEVHNAKTKPREEQYNSTYRVVSVLTVLHQDWLNGKEYKCKVSNKALPAPIEKTISKAKGQPREPRVYTLPPCRDELTKNQVSLTCLVKGFYPSDIAVEWESNGQPENNYKTTPPVLVSDGSFTLYSKLTVDKSRWQQGNVFSCSVMHEALHNHYTQKSLSLSPG
heavy: B1 heavy
light: B1 light
notes: the condition stands under assay; also called AB0192 Lot AB0192-005
Kd (Human CD16a V158): 171 nM
koff (Human CD16a V158): 0.0199 s⁻¹
kon (Human CD16a V158): 117000 M⁻¹ s⁻¹
Kd (mFc-hNKG2D [12]): 588 nM
koff (mFc-hNKG2D [12]): 0.122 s⁻¹
kon (mFc-hNKG2D [12]): 208000 M⁻¹ s⁻¹
Kd (Human CLEC12A-His [13]): 1.68 nM
koff (Human CLEC12A-His [13]): 0.00129 s⁻¹
kon (Human CLEC12A-His [13]): 771000 M⁻¹ s⁻¹

B4: F3'-1602 TriNKET (other)
chain: B1 chain
heavy: B1 heavy
light: B1 light
notes: CLEC12A scFv-Fc, NKG2D A49MI Fab-Fc, human IgG1 Fc; also called AB0237
Kd [14]: 0.58 nM and 0.59 nM and 0.57 nM and 0.6 nM
koff [14]: 0.000494 s⁻¹ and 0.000489 s⁻¹ and 0.000499 s⁻¹
kon [14]: 854000 M⁻¹ s⁻¹ and 833000 M⁻¹ s⁻¹ and 863000 M⁻¹ s⁻¹ and 826000 M⁻¹ s⁻¹
